In PMC6323126:

B1: FHA domain (residues 5–135) of SLMAP [human] / MST2 kinase domain (residues 1–308) [human] (parent)
chain 1: LAIFTCRPNSHPFQERHVYLDEPIKIGRSVARCRPAQNNATFDCKVLSRNHALVWFDHKTGKFYLQDTKSSNGTFINSQRLSRGSEESPPCEILSGDIIQFGVDVTENTRKVTHGCIVSTIKLFLPDGMEA
chain 2: MEQPPAPKSKLKKLSEDSLTKQPEEVFDVLEKLGEGSYGSVFKAIHKESGQVVAIKQVPVESDLQEIIKEISIMQQCDSPYVVKYYGSYFKNTDLWIVMEYCGAGSVSDIIRLRNKTLIEDEIATILKSTLKGLEYLHFMRKIHRDIKAGNILLNTEGHAKLADFGVAGQLTDTMAKRNTVIGTPFWMAPEVIQEIGYNCVADIWSLGITSIEMAEGKPPYADIHPMRAIFMIPTNPPPTFRKPELWSDDFTDFVKKCLVKNPEQRATATQLLQHPFIKNAKPVSILRDLITEAMEIKAKRHEEQQRE

Variants of: B1
Test: BLI
Conditions: with MST2 kinase domain (residues 1–308) [human]; read at the end of association (about 360 s); parent: 2.1; read off a plot

| Variant | response |
| --- | --- |
| chain 1 LAIFTCRPNSHPFQERHVYLDEPIKIGRSVARCRPAQNNATFDCKVLSANHALVWFDHKTGKFYLQDTKSSNGTFINSQRLSRGSEESPPCEILSGDIIQFGVDVTENTRKVTHGCIVSTIKLFLPDGMEA [chain 1 R49A] | 0.57 nm |
